Reference: patent publication US20180265582A1

Target: human PD-1 (programmed cell death 1) (human) (UniProt Q15116)
Test: column Affinity (nM); by the footnote of Tables 3 and 11: FACS staining of endogenous cell surface PD-1 on activated CD4 T cells [row BMS-5C4]

Sequence of UniProt Q15116 (Q15116 25-288 limits assumed): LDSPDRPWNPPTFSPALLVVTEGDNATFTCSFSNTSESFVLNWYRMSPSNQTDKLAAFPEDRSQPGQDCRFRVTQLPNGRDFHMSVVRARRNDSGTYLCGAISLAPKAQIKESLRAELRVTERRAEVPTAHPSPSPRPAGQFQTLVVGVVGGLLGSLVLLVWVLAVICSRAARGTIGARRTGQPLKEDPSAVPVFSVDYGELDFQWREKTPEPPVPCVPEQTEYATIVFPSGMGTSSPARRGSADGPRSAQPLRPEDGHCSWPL

Substance: BMS-5C4 (antibody)
- Affinity: 0.6 nM
